Reference: patent US20100184701A1 (TREVENA, published 2010)
Non-standard residues stand in square brackets, D forms with d. No end group written: not given here. Sar = CNCC(=O)O

T1: human angiotensin 2 type 1 receptor (human, UniProt P30556 1-359)
T1 sequence (looked up): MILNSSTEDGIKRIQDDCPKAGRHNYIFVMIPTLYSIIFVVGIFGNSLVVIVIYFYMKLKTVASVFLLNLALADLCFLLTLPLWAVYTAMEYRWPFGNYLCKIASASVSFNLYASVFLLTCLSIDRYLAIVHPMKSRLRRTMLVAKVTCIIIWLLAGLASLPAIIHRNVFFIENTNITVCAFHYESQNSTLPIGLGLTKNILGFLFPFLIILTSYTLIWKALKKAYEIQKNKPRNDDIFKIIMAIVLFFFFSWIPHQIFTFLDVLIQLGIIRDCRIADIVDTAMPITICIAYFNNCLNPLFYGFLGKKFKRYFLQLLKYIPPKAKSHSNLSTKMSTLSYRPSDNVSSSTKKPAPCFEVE

T2: rat angiotensin 2 type 1 receptor (rat, UniProt P25095 1-359)
T2 sequence (looked up): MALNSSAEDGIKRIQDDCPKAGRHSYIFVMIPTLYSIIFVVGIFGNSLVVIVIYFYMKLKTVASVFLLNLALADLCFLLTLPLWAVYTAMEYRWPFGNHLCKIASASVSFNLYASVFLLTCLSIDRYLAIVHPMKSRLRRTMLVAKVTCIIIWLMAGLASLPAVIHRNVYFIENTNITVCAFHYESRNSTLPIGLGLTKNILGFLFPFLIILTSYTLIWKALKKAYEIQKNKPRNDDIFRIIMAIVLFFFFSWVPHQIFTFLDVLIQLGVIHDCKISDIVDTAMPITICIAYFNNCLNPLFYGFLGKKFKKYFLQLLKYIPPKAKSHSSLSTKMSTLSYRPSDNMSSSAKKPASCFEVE

B1: SEQ ID NO: 40 (peptide)
peptide: [Sar]RVYEHP-NH2
modifications: N-terminus assumed
SMILES: CNCC(=O)N[C@@H](CCCNC(=N)N)C(=O)N[C@H](C(=O)N[C@@H](Cc1ccc(O)cc1)C(=O)N[C@@H](CCC(=O)O)C(=O)N[C@@H](Cc1c[nH]cn1)C(=O)N1CCC[C@H]1C(N)=O)C(C)C
B2: SEQ ID NO: 41 (peptide)
peptide: [Sar]RVYFHP-NH2
modifications: N-terminus assumed
SMILES: CNCC(=O)N[C@@H](CCCNC(=N)N)C(=O)N[C@H](C(=O)N[C@@H](Cc1ccc(O)cc1)C(=O)N[C@@H](Cc1ccccc1)C(=O)N[C@@H](Cc1c[nH]cn1)C(=O)N1CCC[C@H]1C(N)=O)C(C)C
B3: SEQ ID NO: 42 (peptide)
peptide: [Sar]RVYHHP-NH2
modifications: N-terminus assumed
SMILES: CNCC(=O)N[C@@H](CCCNC(=N)N)C(=O)N[C@H](C(=O)N[C@@H](Cc1ccc(O)cc1)C(=O)N[C@@H](Cc1c[nH]cn1)C(=O)N[C@@H](Cc1c[nH]cn1)C(=O)N1CCC[C@H]1C(N)=O)C(C)C
B4: SEQ ID NO: 43 (peptide)
peptide: [Sar]RVYKHP-NH2
modifications: N-terminus assumed
SMILES: CNCC(=O)N[C@@H](CCCNC(=N)N)C(=O)N[C@H](C(=O)N[C@@H](Cc1ccc(O)cc1)C(=O)N[C@@H](CCCCN)C(=O)N[C@@H](Cc1c[nH]cn1)C(=O)N1CCC[C@H]1C(N)=O)C(C)C
B5: SEQ ID NO: 45 (peptide)
peptide: [Sar]RVYRHP-NH2
modifications: N-terminus assumed
SMILES: CNCC(=O)N[C@@H](CCCNC(=N)N)C(=O)N[C@H](C(=O)N[C@@H](Cc1ccc(O)cc1)C(=O)N[C@@H](CCCNC(=N)N)C(=O)N[C@@H](Cc1c[nH]cn1)C(=O)N1CCC[C@H]1C(N)=O)C(C)C
B6: SEQ ID NO: 49 (peptide)
peptide: [Sar]KVYIHP[dA]-OH
modifications: N-terminus assumed
SMILES: CC[C@H](C)[C@H](NC(=O)[C@H](Cc1ccc(O)cc1)NC(=O)[C@@H](NC(=O)[C@H](CCCCN)NC(=O)CNC)C(C)C)C(=O)N[C@@H](Cc1c[nH]cn1)C(=O)N1CCC[C@H]1C(=O)N[C@H](C)C(=O)O
B7: SEQ ID NO: 50 (peptide)
peptide: [Sar]RVYIKP[dA]-OH
modifications: N-terminus assumed
SMILES: CC[C@H](C)[C@H](NC(=O)[C@H](Cc1ccc(O)cc1)NC(=O)[C@@H](NC(=O)[C@H](CCCNC(=N)N)NC(=O)CNC)C(C)C)C(=O)N[C@@H](CCCCN)C(=O)N1CCC[C@H]1C(=O)N[C@H](C)C(=O)O
B8: SEQ ID NO: 53 (peptide)
peptide: [Sar]RVY[dA]HP-NH2
modifications: N-terminus assumed
SMILES: CNCC(=O)N[C@@H](CCCNC(=N)N)C(=O)N[C@H](C(=O)N[C@@H](Cc1ccc(O)cc1)C(=O)N[C@H](C)C(=O)N[C@@H](Cc1c[nH]cn1)C(=O)N1CCC[C@H]1C(N)=O)C(C)C
B9: SEQ ID NO: 55 (peptide)
peptide: [Sar]RVYVH-NH2
modifications: N-terminus assumed
SMILES: CNCC(=O)N[C@@H](CCCNC(=N)N)C(=O)N[C@H](C(=O)N[C@@H](Cc1ccc(O)cc1)C(=O)N[C@H](C(=O)N[C@@H](Cc1c[nH]cn1)C(N)=O)C(C)C)C(C)C

molecular target: T1, human angiotensin 2 type 1 receptor; assay: cell-based or functional assay

| Binder | b-arrestin2 Max (%) | b-arrestin2 EC50 | IP One EC50 (M) | IP One EC50 | IP One Max (%) |
| --- | --- | --- | --- | --- | --- |
| DRVYIHPA [SEQ ID NO: 25] | 57.9% |  |  |  |  |
| GRVYVHPA (Me2G (N,N-dimethylglycine) at 1) [SEQ ID NO: 31] | 58.1% | 100 nM |  |  |  |
| GRVYIHPA (Me2G (N,N-dimethylglycine) at 1) [SEQ ID NO: 32] | 55.6% |  |  |  |  |
| ARVYVHPA (NMAla (N-methyl-L-alanine) at 1) [SEQ ID NO: 33] | 54.9% |  | > 1e-05 M |  |  |
| ARVYIHPA (NMAla (N-methyl-L-alanine) at 1) [SEQ ID NO: 34] | 53% | 25 nM | > 1e-05 M |  |  |
| RVYIHPRVYIHPRVYIHP (cyclic, as printed: Cyclo(...)) [SEQ ID NO: 36] | 39.5% | 1200 nM | > 1e-05 M |  |  |
| FVYIHPFVYIHPFVYIHP (cyclic, as printed: Cyclo(...)) [SEQ ID NO: 37] | 62.3% |  | > 1e-05 M |  |  |
| VYIHPF (cyclic, as printed: Cyclo(...)) [SEQ ID NO: 38] | 43.1% | 680 nM | > 1e-05 M |  |  |
| B1 | 53.2% | 95 nM | > 1e-05 M |  |  |
| B2 | 30.1% | 1600 nM | > 1e-05 M |  |  |
| B3 | 46.4% | 630 nM | > 1e-05 M |  |  |
| B4 | 42.7% | 2100 nM | > 1e-05 M |  |  |
| ARVYIHPA (NMAla (N-methyl-L-alanine) at 1; D-Ala at 8) [SEQ ID NO: 44] |  |  | > 1e-05 M |  |  |
| B5 | 53.3% | 30 nM | > 1e-05 M |  |  |
| ARVYIHPA (NMAla (N-methyl-L-alanine) at 1; D-Ala at 8) [SEQ ID NO: 46] |  |  | > 1e-05 M |  |  |
| ARVYIHPA (NM-D-Ala (N-methyl-D-alanine) at 1) [SEQ ID NO: 47] | 80.5% | 4800 nM | > 1e-05 M |  |  |
| XRVFIHPA (Sar (sarcosine) at 1; D-Ala at 8) [SEQ ID NO: 48] | 48.1% | 1800 nM | > 1e-05 M |  |  |
| B6 | 72.7% | 1000 nM | > 1e-05 M |  |  |
| B7 | 56.8% | 680 nM | > 1e-05 M |  |  |
| XRVYIHP (Sar (sarcosine) at 1; D-Pro at 7; C-terminal amide (NH2)) [SEQ ID NO: 51] | 20.2% | 330 nM | > 1e-05 M |  |  |
| XRVYYHP (Sar (sarcosine) at 1) [SEQ ID NO: 52] | 45.9% | 1400 nM |  |  |  |
| B8 | 33.6% | 1600 nM | > 1e-05 M |  |  |
| XRVYVHP (Sar (sarcosine) at 1) [SEQ ID NO: 54] | 58.6% | 42 nM | > 1e-05 M |  |  |
| B9 | 92.7% | 220 nM |  | 96 nM | 97.6% |
| DRVYIHPG-OH [SEQ ID NO: 56] | 104% | 550 nM |  | 660 nM | 96.5% |

molecular target: T2, rat angiotensin 2 type 1 receptor; assay: cell-based or functional assay

| Binder | IP One Max (%) | b-arrestin2 Max (%) | IP One EC50 | IP One EC50 (M) | b-arrestin2 EC50 |
| --- | --- | --- | --- | --- | --- |
| DRVYIHPA [SEQ ID NO: 25] | 14.1% | 77% |  |  |  |
| GRVYVHPA (Me2G (N,N-dimethylglycine) at 1) [SEQ ID NO: 31] | 6.2% | 75.9% | 13 nM |  |  |
| GRVYIHPA (Me2G (N,N-dimethylglycine) at 1) [SEQ ID NO: 32] | 6.8% | 80.2% |  |  |  |
| ARVYVHPA (NMAla (N-methyl-L-alanine) at 1) [SEQ ID NO: 33] |  | 86.9% |  | > 1e-05 M | 31 nM |
| ARVYIHPA (NMAla (N-methyl-L-alanine) at 1) [SEQ ID NO: 34] |  | 81.7% |  | > 1e-05 M | 32 nM |
| RVYIHPRVYIHPRVYIHP (cyclic, as printed: Cyclo(...)) [SEQ ID NO: 36] | 19.2% | 32.8% | 100 nM |  | 1900 nM |
| FVYIHPFVYIHPFVYIHP (cyclic, as printed: Cyclo(...)) [SEQ ID NO: 37] | 14.7% | 60.7% |  |  | 1900 nM |
| VYIHPF (cyclic, as printed: Cyclo(...)) [SEQ ID NO: 38] | 20.8% | 66.4% |  |  | 2500 nM |
| B1 |  | 87.9% |  | > 1e-05 M | 31 nM |
| B2 |  | 53.1% |  | > 1e-05 M | 660 nM |
| B3 |  | 74.9% |  | > 1e-05 M | 270 nM |
| B4 | 17.9% | 64.8% | 260 nM |  | 910 nM |
| ARVYIHPA (NMAla (N-methyl-L-alanine) at 1; D-Ala at 8) [SEQ ID NO: 44] | 14.6% |  | 8.2 nM |  |  |
| B5 | 10.2% | 91.7% | 26 nM |  | 27 nM |
| ARVYIHPA (NMAla (N-methyl-L-alanine) at 1; D-Ala at 8) [SEQ ID NO: 46] |  |  |  | > 1e-05 M | 63 nM |
| ARVYIHPA (NM-D-Ala (N-methyl-D-alanine) at 1) [SEQ ID NO: 47] |  | 72.2% |  | > 1e-05 M | 2100 nM |
| XRVFIHPA (Sar (sarcosine) at 1; D-Ala at 8) [SEQ ID NO: 48] | 13.9% | 42.1% |  |  |  |
| B6 |  | 52.9% |  | > 1e-05 M | 630 nM |
| B7 |  | 85.6% |  | > 1e-05 M | 270 nM |
| XRVYIHP (Sar (sarcosine) at 1; D-Pro at 7; C-terminal amide (NH2)) [SEQ ID NO: 51] |  | 5.8% |  | > 1e-05 M | 110 nM |
| XRVYYHP (Sar (sarcosine) at 1) [SEQ ID NO: 52] | 8% | 83.8% | 300 nM |  | 440 nM |
| B8 |  | 12.2% |  | > 1e-05 M | 420 nM |
| XRVYVHP (Sar (sarcosine) at 1) [SEQ ID NO: 54] |  | 83% |  | > 1e-05 M | 17 nM |
| B9 | 98.8% | 95.6% | 6.8 nM |  | 42 nM |
| DRVYIHPG-OH [SEQ ID NO: 56] | 98.4% | 98.5% | 20 nM |  | 160 nM |
